Literature values, collected in patent publication US20080279765A1, “Novel Imaging Agents for Fibrosis” (priority 2005, published 2008).
Read-outs that look alike come from different tables or passages of the source.

Legend:
M6P receptor [1] = target: T1, M6P receptor (Homo sapiens, UniProt P11717); conditions: pH 7.4; read-out: Kd of binding to the M6P receptor
M6P receptor [2] = target: T1, M6P receptor; conditions: site on M6P receptor distinct from the IGF-II binding site

T1 sequence (P11717 41-2491): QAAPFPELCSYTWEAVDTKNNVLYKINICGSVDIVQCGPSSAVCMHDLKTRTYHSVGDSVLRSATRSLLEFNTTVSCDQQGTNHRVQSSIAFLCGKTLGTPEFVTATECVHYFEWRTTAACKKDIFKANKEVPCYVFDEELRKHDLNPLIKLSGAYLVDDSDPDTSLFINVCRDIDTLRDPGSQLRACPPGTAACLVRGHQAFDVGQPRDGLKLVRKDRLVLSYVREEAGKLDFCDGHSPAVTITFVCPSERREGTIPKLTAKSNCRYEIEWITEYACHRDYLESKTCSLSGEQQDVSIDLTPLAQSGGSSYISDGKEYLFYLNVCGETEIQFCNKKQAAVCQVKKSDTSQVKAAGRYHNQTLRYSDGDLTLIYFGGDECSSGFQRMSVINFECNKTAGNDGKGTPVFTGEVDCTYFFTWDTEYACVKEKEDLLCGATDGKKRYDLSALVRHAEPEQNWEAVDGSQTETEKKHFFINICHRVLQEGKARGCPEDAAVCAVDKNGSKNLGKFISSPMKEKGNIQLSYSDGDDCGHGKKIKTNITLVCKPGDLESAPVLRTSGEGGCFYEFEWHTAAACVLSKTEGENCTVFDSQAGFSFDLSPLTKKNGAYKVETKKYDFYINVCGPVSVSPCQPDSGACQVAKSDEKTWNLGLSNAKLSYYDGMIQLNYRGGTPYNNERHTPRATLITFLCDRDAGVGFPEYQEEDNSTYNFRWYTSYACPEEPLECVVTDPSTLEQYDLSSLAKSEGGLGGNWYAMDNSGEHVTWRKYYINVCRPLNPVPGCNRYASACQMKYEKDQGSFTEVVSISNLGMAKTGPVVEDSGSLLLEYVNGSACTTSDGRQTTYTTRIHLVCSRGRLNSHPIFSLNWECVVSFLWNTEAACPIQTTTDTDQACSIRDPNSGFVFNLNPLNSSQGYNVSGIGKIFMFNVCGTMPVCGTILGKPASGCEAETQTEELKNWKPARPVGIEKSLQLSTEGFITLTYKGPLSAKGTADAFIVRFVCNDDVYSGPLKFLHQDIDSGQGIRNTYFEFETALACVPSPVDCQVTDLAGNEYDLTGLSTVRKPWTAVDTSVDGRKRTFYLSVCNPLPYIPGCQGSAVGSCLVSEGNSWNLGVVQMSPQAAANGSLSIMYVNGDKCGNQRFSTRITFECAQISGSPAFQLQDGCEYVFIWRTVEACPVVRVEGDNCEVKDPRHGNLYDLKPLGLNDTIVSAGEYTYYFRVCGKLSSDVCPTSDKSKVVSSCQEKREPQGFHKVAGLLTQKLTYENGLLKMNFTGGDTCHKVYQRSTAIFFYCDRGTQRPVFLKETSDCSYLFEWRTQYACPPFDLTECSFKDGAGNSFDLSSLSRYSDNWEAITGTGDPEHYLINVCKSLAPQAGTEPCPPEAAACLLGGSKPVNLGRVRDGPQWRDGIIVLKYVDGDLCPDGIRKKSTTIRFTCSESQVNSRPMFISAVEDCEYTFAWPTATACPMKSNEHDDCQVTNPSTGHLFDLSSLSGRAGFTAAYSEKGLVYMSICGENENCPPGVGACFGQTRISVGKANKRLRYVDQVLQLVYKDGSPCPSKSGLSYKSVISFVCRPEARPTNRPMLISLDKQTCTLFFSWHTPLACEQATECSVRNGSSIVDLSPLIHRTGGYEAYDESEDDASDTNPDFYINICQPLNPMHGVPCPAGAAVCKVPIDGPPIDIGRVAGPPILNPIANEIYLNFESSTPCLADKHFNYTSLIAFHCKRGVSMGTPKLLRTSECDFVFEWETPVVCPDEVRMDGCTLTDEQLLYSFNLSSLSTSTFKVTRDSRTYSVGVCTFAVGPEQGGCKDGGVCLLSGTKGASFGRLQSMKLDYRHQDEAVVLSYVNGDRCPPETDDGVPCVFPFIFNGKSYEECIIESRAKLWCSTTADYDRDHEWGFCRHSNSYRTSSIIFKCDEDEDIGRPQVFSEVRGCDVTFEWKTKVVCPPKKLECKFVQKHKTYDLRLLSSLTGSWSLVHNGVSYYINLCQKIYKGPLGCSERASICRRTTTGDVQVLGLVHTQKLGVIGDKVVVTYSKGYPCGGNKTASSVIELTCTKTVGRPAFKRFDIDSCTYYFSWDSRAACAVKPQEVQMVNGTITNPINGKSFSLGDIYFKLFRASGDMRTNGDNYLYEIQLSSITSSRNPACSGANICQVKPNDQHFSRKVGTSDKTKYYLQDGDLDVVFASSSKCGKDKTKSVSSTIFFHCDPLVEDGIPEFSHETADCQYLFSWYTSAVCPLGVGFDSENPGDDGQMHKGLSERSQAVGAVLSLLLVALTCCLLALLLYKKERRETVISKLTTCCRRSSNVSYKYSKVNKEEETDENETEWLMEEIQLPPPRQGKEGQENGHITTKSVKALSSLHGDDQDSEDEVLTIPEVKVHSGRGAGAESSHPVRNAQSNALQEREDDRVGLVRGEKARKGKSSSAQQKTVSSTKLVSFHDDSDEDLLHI

Substance | Kd (M6P receptor [1]) | Kd (M6P receptor [2])
IGF-II: non-glycosylated single chain of 67 amino acid residues, SEQ ID NO. 1 | 0.3 to 14 nM | 
retinoic acid |  | 2.4 nM
